Key:
[1] = biological target: T1, mono- and di-methylated lysine peptides (H4K20, p53K382 and other histone and non-histone peptides) (Homo sapiens, UniProt Q9Y468); experiment: Peptide pull-down assay with biotinylated peptides, Western blot; format: binding
T1 construct: made in house; host or cells: E. coli
T1 sequence (Q9Y468 258-598): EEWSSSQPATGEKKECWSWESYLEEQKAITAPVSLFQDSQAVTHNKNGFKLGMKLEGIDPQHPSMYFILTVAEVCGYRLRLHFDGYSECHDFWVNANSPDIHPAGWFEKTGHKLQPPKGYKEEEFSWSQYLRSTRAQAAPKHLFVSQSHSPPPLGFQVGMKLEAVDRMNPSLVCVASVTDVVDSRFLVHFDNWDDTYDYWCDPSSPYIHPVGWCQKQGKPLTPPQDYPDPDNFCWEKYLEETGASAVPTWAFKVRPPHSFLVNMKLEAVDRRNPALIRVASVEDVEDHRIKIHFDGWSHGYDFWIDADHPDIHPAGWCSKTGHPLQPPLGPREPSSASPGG
Method: (§1) Peptide pull-down assays were performed as previously described (Shi et al. (2006) Nature 442, 96-99), using 1 μg protein and 1 μg peptide per condition in binding buffer (50 mM Tris pH 7.5, 150 mM NaCl, 0.05% NP-40). Peptide arrays were performed as previously described (Bua et al., supra).

[2] = tested on: mono- and di-methylated lysine peptides (H4K20, p53K382 and other histone and non-histone peptides); experiment: as above; format: binding; conditions: GST fusions, FIG. 1B
Method: as §1

[3] = tested on: methylated proteins (H3, p53, RelA, SIRT1) in HeLa / 293T nuclear extract; experiment: Protein pull-down from nuclear extract with GSH-Sepharose coupled domain, Western blot; format: binding
Method: GSH-Sepharose coupled domain beads were generated for pull-down by incubating GSHSepharose resin with E. coli lysate containing sufficient 3×MBT for bead saturation. Bead-coupled 3×MBT was incubated with nuclear extract overnight and proteins that precipitated with the resin were analyzed by SDS-PAGE.
Recombinant GST-SIRT1 was expressed by baculoviral transduction of the Sf9 insect cell line as previously described (Levy et al. (2011) Nat. Immunol. 12, 29-36). A panel of enzymes was tested for ability to methylate recombinant SIRT1 using ^3H-SAM in in vitro methylation reactions (Kuo et al. (2011) Mol. Cell 44, 609-620). SIRT1K622R was generated by site-directed mutagenesis (Stratagene). For the pull-down experiment, 293T cells were transfected with a 10:1 enzyme:substrate DNA ratio. 150 μg of nuclear proteins were used for pull-downs with 3×MBT or 3×MBTD355N coupled GSH-Sepharose as described above.
GSH-Sepharose coupled domain beads were prepared for pull-down by expressing the domain in E. coli. Cells were lysed as described, and lysate was incubated overnight at 4° C. with GSH-Sepharose with a sufficient lysate-to-Sepharose ratio to result in Sepharose binding saturation. The GSH-Sepharose was then washed 3×5 minutes in binding buffer and resuspended in binding buffer to 50% slurry. 150 μg of nuclear proteins were incubated overnight at 4° C. with 15 μl 50% slurry of either 3×MBT or 3×MBTD355N coupled to GSH-Sepharose in binding buffer (total volume of about 150 μl). Beads were washed 3×5 minutes in 0.5 ml of binding buffer. Beads were boiled in 25 μl of 2× Laemmli buffer and supernatant was analyzed by SDS-PAGE and Western blotting.
For SETD6/RelA and SET8/p53 pull-down experiments, 293T cells were transfected with a 1:1 enzyme:substrate DNA ratio. 150 μg of nuclear proteins were incubated overnight at 4° C. with 15 μl 50% slurry of either 3×MBT or 3×MBTD355N coupled to GSH-Sepharose in binding buffer. […] Laemmli buffer was added to the supernatant to 1×, and the resulting samples analyzed by SDS-PAGE and Western blotting.

G9a SET domain = biological target: T2, G9a SET domain (Homo sapiens, UniProt Q96KQ7); experiment: ProtoArray on-chip in vitro methylation, detected with 3xFlag-3xMBT; format: biochemical; conditions: ProtoArrays bearing 9,500 recombinant human proteins
T2 construct: 50 μg of GST or recombinant GSTtagged G9a SET domain and the cofactor SAM
Method: The assay was conducted as previously described (Levy et al. (2011) Epigenetics Chromatin 4, 19). Briefly, a ProtoArray (Invitrogen, version 5.0) was incubated overnight with 50 μg of GST or recombinant GSTtagged G9a SET domain and the cofactor SAM.
Arrays were analyzed using GenePix Pro 6.1 software (Molecular Devices) and feature values were assigned to proteins using the array list provided by Invitrogen. We designated the following criteria for “hits”: GST array signal-to-noise ratio (SNR) less than or equal to 1.5, G9a array SNR greater than or equal to 10, and a difference between the G9a array SNR and the GST array SNR of greater than or equal to 12. Hits were individually visually validated. Proteins were removed from the list of potential substrates if irregular array features appeared to interfere with the array spots or SNR calculations.

[4] = biological target: T3, over 100 distinct histone and non-histone peptides with different post-translational modifications (Homo sapiens, UniProt Q9Y468); experiment: Peptide array probed with GST-3×MBT; format: binding; conditions: FIG. 1E
T3 construct: made in house; host or cells: E. coli
T3 sequence (Q9Y468 258-598): T1 sequence (Q9Y468 258-598)
Method: as §1

[5] = tested on: methylated histones (HeLa nucleosomes, calf thymus histones), p53K382me1, H3K9me2; experiment: Far Western assay; format: binding
Method: For Far Western assays, proteins were separated by SDS-PAGE and transferred to a PVDF membrane. Following blocking, membranes were incubated overnight with the indicated domain. Domain binding was determined using an epitope tag-specific antibody and appropriate HRP-conjugated secondary antibody.
For Far Western assays on purified HeLa nucleosomes and calf thymus histones, the indicated amounts of nucleosome or histone were separated by SDS-PAGE and transferred to a PVDF membrane. The membrane was blocked in milk prepared with Tris-buffered saline with 0.1% Tween (TBST). Membranes were incubated overnight at 4° C. with 1 μg/ml of the indicated domain in TBST. Domain binding was determined using an epitope tag-specific antibody and appropriate HRP-conjugated secondary antibody.
For the SET8/p53 Far Westerns, p53 was methylated in vitro as previously described (Kuo et al., 2011), with 5 μg enzyme and 1 μg substrate per 25 μl of reaction volume incubated at 30° C. overnight. Following the methylation reaction, PreScission Protease was added directly to the reaction mix and samples were incubated overnight at 4° C. Blotting was conducted as described above. G9a SET domain/recombinant H3 (New England BioLabs) samples were prepared similarly, without a GST cleavage step.

T2 sequence (Q96KQ7 1038-1155 limits assumed): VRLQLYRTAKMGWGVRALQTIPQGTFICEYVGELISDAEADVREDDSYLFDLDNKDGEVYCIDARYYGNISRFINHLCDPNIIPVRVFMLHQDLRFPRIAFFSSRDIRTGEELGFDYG

B1: 3×MBT: three MBT repeats of L3MBTL1 (amino acids 190-530 of accession NP—056293.4), expressed as GST or Flag fusion; methyl-lysine affinity reagent (protein)
chain: T1 sequence (Q9Y468 258-598)
modifications: left off: a dimerising Fc or GST
For B1, the “binding to non-methylated peptides” value ([1]; FIG. 1D) was “does not bind”, the “binding to tri-methylated peptides” value ([1]; FIG. 1D) was “binds very weakly” and the “effect of acetylation of a neighboring lysine and phosphorylation of an N-terminally adjacent serine on binding” value ([1]; FIG. 2E) was “did not affect”. The “effect of phosphorylation on a C-terminally adjacent serine on binding to mono- or di-methylated lysine” value ([1]; FIGS. 2A and 2B) was “decreased, but did not eliminate”, the “effect of arginine methylation one or two residues removed from the lysine methylation site on binding” value ([1]; FIGS. 2C and 2D) was “little effect” and the “co-precipitation with panel of mono- and di-methylated peptides” value ([1]; histone and nonhistone peptides, FIG. 1C) was “co-precipitates with thirteen different mono- and di-methylated peptides”. For the same molecule, the “binding to mono- and di-methylated H4K20- and p53K382-containing peptides” value [2] was “binds”, the “precipitation of 3× Flag-SIRT1” value ([3]; 293T cells, only when G9a is co-expressed and K622 is intact) was “specifically precipitated” and the “precipitation of methylated proteins H3 and p53” value ([3]; HeLa nuclear extract) was “precipitates”. The “precipitation of methylated RelA” value ([3]; nuclear extract of 293T cells co-expressing SETD6 and RelA) was “precipitates”, the “number of proteins detected on the G9a-methylated array but not on the control array” value (G9a SET domain) was 112 and the “binding to unmodified peptides, tri-methylated lysine peptides or peptides with other PTMs on peptide array” value [4] was “did not bind”. The “number of peptides containing mono- and di-methylated lysine bound on peptide array” value ([4]; array of over 100 unique peptides) was 41, the “Far Western detection of recombinant H3 dimethylated at lysine 9 (H3K9me2) by G9a SET domain” value [5] was “specifically detects” and the “Far Western detection of recombinant p53 mono-methylated at lysine 382 by SET8” value [5] was “detected”. For the same molecule, the “Far Western detection of histones” value ([5]; purified HeLa nucleosomes and calf thymus histones) was “detected”.
